Publication PMC10369405 (JACS Au, 2023)

Biological target: T1, full-length human Gasdermin D (human, UniProt P57764 1-484)
T1 construct: Gasdermin D, human, UniProt P57764, 484 residues (53 kDa); His6-SUMO tag removed with Ulp1 protease and anion exchange; also called hGSDMD; GSDMD; source: E. coli BL21 (DE3) Gold, purified (HisTrap, Ulp1 cleavage, anion exchange, Superdex 75)
T1 sequence (looked up): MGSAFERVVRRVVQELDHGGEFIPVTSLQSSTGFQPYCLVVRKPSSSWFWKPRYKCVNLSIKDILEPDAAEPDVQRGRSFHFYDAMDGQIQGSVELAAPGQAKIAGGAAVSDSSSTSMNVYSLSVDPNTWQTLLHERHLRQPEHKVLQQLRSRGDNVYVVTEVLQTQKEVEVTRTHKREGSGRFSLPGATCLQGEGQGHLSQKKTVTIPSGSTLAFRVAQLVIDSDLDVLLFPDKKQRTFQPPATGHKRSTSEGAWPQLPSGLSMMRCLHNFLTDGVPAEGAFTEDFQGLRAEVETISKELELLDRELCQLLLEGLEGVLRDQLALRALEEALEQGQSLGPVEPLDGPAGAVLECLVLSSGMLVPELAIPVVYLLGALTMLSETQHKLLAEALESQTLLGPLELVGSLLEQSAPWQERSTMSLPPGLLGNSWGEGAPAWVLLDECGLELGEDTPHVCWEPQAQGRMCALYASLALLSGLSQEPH
Assay: native gel or EMSA; native-PAGE, 12% polyacrylamide, 150 V, 25 mM Tris-HCl, 192 mM glycine, pH 8.3; Caspase-1 alone (40 uM), GSDMD alone (40 uM), GSDMD/Caspase-1 at 1:1 and 2:1 equivalents, with and without 20 mM NaTDB
Conditions: both partners purified

binding result: binds
B1: human Caspase-1 (C285A) p20/p10 dimer (complex)
chain 1: NPAMPTSSGSEGNVKLCSLEEAQRIWKQKSAEIYPIMDKSSRTRLALIICNEEFDSIPRRTGAEVDITGMTMLLQNLGYSVDVKKNLTASDMTTELEAFAHRPEHKTSDSTFLVFMSHGIREGICGKKHSEQVPDILQLNAIFNMLNTKNCPSLKDKPKVIIIQAARGDSPGVVWFKD
chain 2: AIKKAHIEKDFIAFCSSTPDNVSWRHPTMGSVFIGRLIEHMQEYACSCDVEEIFRKVRFSFEQPDGRAQMPTTERVTLTRCFYLFPGH
notes: peptides 279-286 and 287-297 are assigned to it; Caspase-1 p10 subunit (p10 fragment), human; peptides 342-352, 375-383 and 384-391 are assigned to it; Polycistronic vector encoding an N-terminal His-tag; also called hCaspase-1 (C285A); protease C285A
